Values joined by “and” are separate entries in the source; they are usually repeats but may differ in a detail not shown here. Identical values can stand only once.
Target: the molecule itself
Experiment: sucrose density gradient centrifugation

B1: PIV-5 hemagglutinin-neuraminidase (HN) protein, mutant E37D (natural protein)
chain: MVAEDAPVRATCRVLFRTTTLIFLCTLLALSISILYDSLITQKQIMSQAGSTGSNSGLGSITDLLNNILSVANQIIYNSAVALPLQLDTLESTLLTAIKSLQTSDKLEQNCSWSAALINDNRYINGINQFYFSIAEGRNLTLGPLLNMPSFIPTATTPEGCTRIPSFSLTKTHWCYTHNVILNGCQDHVSSNQFVSMGIIEPTSAGFPFFRTLKTLYLSDGVNRKSCSISTVPGGCMMYCFVSTQPERDDYFSAAPPEQRIIIMYYNDTIVERIINPPGVLDVWATLNPGTGSGVYYLGWVLFPIYGGVIKGTSLWNNQANKYFIPQMVAALCSQNQATQVQNAKSSYYSSWFGNRMIQSGILACPLRQDLTNECLVLPFSNDQVLMGAEGRLYMYGDSVYYYQRSNSWWPMTMLYKVTITFTNGQPSAISAQNVPTQQVPRPGTGDCSATNRCPGFCLTGVYADAWLLTNPSSTSTFGSEATFTGSYLNTATQRINPTMYIANNTQIISSQQFGSSGQEAAYGHTTCFRDTGSVMVYCIYIIELSSSLLGQFQIVPFIRQVTLS
stoichiometry N: 2 and 4
